Experimental data taken from publication PMC12292835, “Amylin Receptor 1 Mutagenesis Revealed a Potential Role of Calcitonin Serine 29 in Receptor Interaction” (Biomedicines, 2025).
Substitutions are numbered along the chain they refer to. Names may count otherwise.

B1: amylin receptor 1 extracellular domain, wild type (hRAMP1.24–111-(GSA)3-hCTR.34–141-H6) (receptor)
chain: TTACQEANYGALLRELCLTQFQVDMEAVGETLWCDWGRTIRSYRELADCTWHMAEKLGCFWPNAEVDRFFLAVHGRYFRSCPISGRAVGSAGSAGSAIEPKPFLYVVGRKKMMDAQYKCYDRMQQLPAYQGEGPYCNRTWDGWLCWDDTPAGVLSYQFCPDYFPDFDPSEKVTKYCDEKGVWFKHPENNRTWSNYTMCNAFTPEK
modifications: N-glycosylated (sites not given)
B2: amylin receptor 1 extracellular domain with calcitonin receptor N124A (hRAMP1.24–111-(GSA)3-hCTR.34–141.N124A-H6) (receptor)
chain: B1 chain with N188A
modifications: N-glycosylated (sites not given)
B3: amylin receptor 1 extracellular domain with calcitonin receptor E123D (hRAMP1.24–111-(GSA)3-hCTR.34–141.E123D-H6) (receptor)
chain: B1 chain with E187D
modifications: N-glycosylated (sites not given)
B4: amylin receptor 1 extracellular domain with calcitonin receptor N124D (hRAMP1.24–111-(GSA)3-hCTR.34–141.N124D-H6) (receptor)
chain: B1 chain with N188D
modifications: N-glycosylated (sites not given)
B5: amylin receptor 1 extracellular domain with calcitonin receptor E123A (hRAMP1.24–111-(GSA)3-hCTR.34–141.E123A-H6) (receptor)
chain: B1 chain with E187A
modifications: N-glycosylated (sites not given)
B6: amylin receptor 1 extracellular domain with calcitonin receptor D97A (hRAMP1.24–111-(GSA)3-hCTR.34–141.D97A-H6) (receptor)
chain: B1 chain with D161A
modifications: N-glycosylated (sites not given)
B7: amylin receptor 1 extracellular domain with calcitonin receptor D97E (hRAMP1.24–111-(GSA)3-hCTR.34–141.D97E-H6) (receptor)
chain: B1 chain with D161E
modifications: N-glycosylated (sites not given)

Target: T1, FITC-labeled AC413(6–25) with Y25P mutation (fluorescein isothiocyanate (FITC) on the N-terminus)
T1 construct: AC413, an antagonist amylin analog, residues 6-25 (20 amino acids) with Y25P; also called FITC-AC413(6–25) Y25P; AC413(6–25) Y25P; source: synthetic peptide (custom-synthesized, Genscript, HPLC-purified)
Assay: fluorescence polarisation; saturation binding format; 10 nM FITC-labeled peptide probe, purified receptor ECD at rising concentrations; 1 h at room temperature; anisotropy; mean pKD of at least three independent experiments
Conditions: both partners purified

| Binder | Kd [nM] | pKD |
| --- | --- | --- |
| B1 | 57 | 7.24 |
| B2 | 467 | 6.33 |
| B3 | 136 | 6.87 |
| B4 | 822 | 6.09 |
| B5 | 129 | 6.89 |
| B6 | 62 | 7.21 |
| B7 | 81 | 7.09 |

Target: T2, FITC-labeled salmon calcitonin (sCT) fragment(22–32) (salmon, fluorescein isothiocyanate (FITC) label, position not stated)
T2 construct: salmon calcitonin, residues 22-32 (11 amino acids); numbers count on: the mature 32-residue hormone; probably FITC at the N-terminus and a C-terminal amide, neither stated for this peptide; also called FITC-sCT(22–32); sCT(22–32); source: synthetic peptide (custom-synthesized, Genscript, HPLC-purified)
Assay: as above
Conditions: both partners purified

| Binder | Kd [nM] | pKD |
| --- | --- | --- |
| B1 | 81 | 7.09 |
| B3 | 53 | 7.28 |
| B4 | 52 | 7.29 |
| B5 | 365 | 6.44 |
| B6 | 548 | 6.26 |
| B7 | 161 | 6.79 |

Target: T2, FITC-labeled salmon calcitonin (sCT) …
Assay: as above
Conditions: both partners purified
Remark: another data set of the same source

| Binder | fold decrease of affinity against the wild type [fold] |
| --- | --- |
| B2 | > 10 |
